Biological target: the molecule itself
Assay: rotary-shadowing electron microscopy; chaperonin (50 µg/mL) directly immobilised on plasma-cleaned coverslip, washed with HKM buffer [25 mM HEPES-KOH (pH 7.4), 100 mM KCl, 5 mM MgCl2] and 50% glycerol, shadowed at 5° with platinum and carbon; coverslip without chaperonin as negative control

B1: αD263C/Q271C/C366S-His, the double-cysteine mutant of Thermococcus sp. strain KS-1 (T. KS-1) α chaperonin with internal hexahistidine tags (complex, UniProt P61112 1-548, looked up)
chain: MAQLSGQPVVILPEGTQRYVGRDAQRLNILAARIIAETVRTTLGPKGMDKMLVDSLGDIVVTNDGATILDKIDLQHPAAKMMVEVAKTQDKEAGDGTTTAVVIAGELLRKAEELLDQNIHPSIIIKGYALAAEKAQEILDEIAIRVDPDDEETLLKIAATSITGKNAESHKELLAKLAVEAVKQVAEKKDGKYVVDLDNIKFEKKAGEGVEESELVRGVVIDKEVVHPRMPKRVENAKIALINEALEVKKTETDAKINITSPCQLMSFLECEEKMLKDMVDHIAQTGANVVFVQKGIDDLAQHYLAKYGIMAVRRVKKSDMEKLAKATGAKIVTNVKDLTPEDLGYAEVVEERKLAGENMIFVEGSKNPKAVTILIRGGTEHVIDEVERALEDAVKVVKDVMEDGAVLPAGGAPEIELAIRLDEYAKQVGGKEALAIENFADALKIIPKTLAENAGLDTVEMLVKVISEHKNRGLGIGIDVFEGKPADMLEKGIIEPLRVKKQAIKSASEAAIMILRIDDVIAAKATKPEGGQGGGMPGGMGGMDMGM
notes: Group II chaperonin (thermosome) α subunit of Thermococcus sp. strain KS-1, amino acids 1-548, the entire α subunit amplified from plasmid pK1Eα2; hexa-histidine inserted between Val146 and Asp147; Homo-oligomeric double ring; The results call the sample of the electron microscopy BSR-CPN (cysteines 263 and 271 cross-linked by BSR, about 0.3 dye per hexadecamer); the methods name the unlabelled …
binding result: binds

— publication PMC3136518, “Single-Molecule Fluorescence Polarization Study of Conformational Change in Archaeal Group II Chaperonin” (PLoS ONE, 2011)
